Here are results for one molecule from patent publication US20160298117, “PEANUT-BINDING NUCLEIC ACID MOLECULE AND USE THEREOF” (NEC Solution Innovators, Ltd., published 2016).

The target of data set [1] is T1, Ara h1 (heat-denatured, purified from parboiled peanut) (Arachis hypogaea, UniProt P43238 P43238:26-626).
T1 sequence: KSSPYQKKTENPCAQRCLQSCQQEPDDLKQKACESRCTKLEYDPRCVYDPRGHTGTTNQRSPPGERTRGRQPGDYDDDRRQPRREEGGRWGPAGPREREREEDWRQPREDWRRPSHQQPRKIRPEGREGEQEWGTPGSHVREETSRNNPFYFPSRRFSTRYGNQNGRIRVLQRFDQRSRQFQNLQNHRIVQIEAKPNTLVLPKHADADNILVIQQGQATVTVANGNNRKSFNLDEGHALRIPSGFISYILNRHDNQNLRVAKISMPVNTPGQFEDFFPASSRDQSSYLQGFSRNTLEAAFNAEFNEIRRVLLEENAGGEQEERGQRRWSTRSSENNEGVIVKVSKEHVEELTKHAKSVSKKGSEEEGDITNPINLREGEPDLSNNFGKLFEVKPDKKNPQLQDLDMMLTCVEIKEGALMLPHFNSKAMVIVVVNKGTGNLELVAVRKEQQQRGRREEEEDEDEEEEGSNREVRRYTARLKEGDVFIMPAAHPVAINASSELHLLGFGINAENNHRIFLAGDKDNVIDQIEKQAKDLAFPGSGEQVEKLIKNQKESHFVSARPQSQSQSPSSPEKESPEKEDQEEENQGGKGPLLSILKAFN
Nature of the data set: SPR; 6.25-100 nM Ara h1. The following applies: tags: INDOOR biotechnologies NA-AH1-1. On the procedure:
(§1) First, as a sensor chip designed specifically for the ProteON, a streptavidin-immobilized chip (trade name: ProteOn NLC Sensor Chip, BioRad) was set in the ProteON XPR36. Biotinylated poly(dT) at 5 μmol/L was injected to a flow cell of the sensor chip using ultrapure water (DDW), and the binding was allowed to proceed until the signal intensity (RU: Resonance Unit) reached about 900 RU. The biotinylated poly(dT) was prepared by biotinylating the 5′ end of 24-mer deoxythymidine. Then, the poly(dA)-added aptamer at 1 μmol/L was injected to the flow cell of the chip using an SPR buffer at a flow rate of 25 μL/min for 80 seconds, and the binding was allowed to proceed until the signal intensity reached about 800 RU. […]
(§2) Samples were prepared by adjusting the Ara h1 used in Example 2 to predetermined concentrations (6.25, 12.5, 25, 50, and 100 nmol/L). […] From the results of the above-described SPR analysis, the relative binding value was determined regarding the Ara h1 bound to the aptamer immobilized on the chip. The relative binding value was calculated as the ratio of the protein binding measured value to the aptamer immobilization measured value (the protein binding measured value/the aptamer immobilization measured value).
For orientation: In SPR one partner is held on a chip, and binding of the other changes the refractive index at the surface.

Data set [2] concerns the target beta-conglycinin (heat-denatured, boiled 10 min) (Glycine max, UniProt P0DO16;P11827;P25974 P0DO16:63-605,P11827:63-621,P25974:24-439). Description: SPR; little binding, 18.75-300 nM. The following applies: tags: Sigma C5868-5GM. On the procedure:
Biotinylated poly(dT) at 5 μmol/L was injected to a flow cell of the sensor chip using ultrapure water (DDW), and the binding was allowed to proceed until the signal intensity (RU: Resonance Unit) reached about 900 RU. The biotinylated poly(dT) was prepared by biotinylating the 5′ end of 24-mer deoxythymidine. Then, the poly(dA)-added aptamer at 1 μmol/L was injected to the flow cell of the chip using an SPR buffer at a flow rate of 25 μL/min for 80 seconds, and the binding was allowed to proceed until the signal intensity reached about 800 RU. […] Subsequently, the sample was injected using the SPR buffer at a flow rate of 50 μL/min for 120 seconds, followed by washing performed by flowing the SPR buffer under the same conditions. Signal intensity measurement was performed concurrently with the injection of the sample and the washing with the SPR buffer.
As soybean allergen samples, undenatured β-conglycinin, heat-denatured β-conglycinin, undenatured soybean proteins, and heat-denatured soybean proteins were provided. A commercially available product (Sigma, trade name β-conglycinin from Glycine max (soybean), C5868-5GM) was used as the undenatured β-conglycinin. The heat-denatured β-conglycinin was prepared by boiling the undenatured β-conglycinin for 10 minutes and then collecting a supernatant fraction. As the undenatured soybean proteins and the heat-denatured soybean proteins, the undenatured soybean sample and the heat-denatured soybean sample in Example 1 were used.
(§3) The concentrations of the β-conglycinin were set to 18.75, 37.5, 75, 150, and 300 nmol/L, and the protein concentrations in the soybean samples were set to 1, 3, 10, 30, and 100 ppm. The SPR analysis was performed in the same manner as in Example 1, except that these samples were used. Then, from the results of the above-described SPR analysis, the relative binding value was determined regarding the proteins in each peanut sample bound to the aptamer immobilized on the chip.

Data set [3] has as its target T2, conarachin (heat-denatured, boiled 10 min) (Arachis hypogaea, UniProt P43238 P43238:26-626).
T2 sequence: T1 sequence
Description: SPR; 3.125-50 nM; superior to undenatured. The note with it: tags: COSMO BIO CSB-CSB-NP003601PL. On the procedure:
as §1
as §2, with “undenatured conarachin” for “Ara h1 used in Example 2”, “(10, 30, 100, 300, and 1000 nmol/L) and the heat-denatured conarachin to predetermined concentrations (3.125, 6.25,” for “(6.25,”, “25,” for “25, 50,”, “50” for “100”, “conarachin” for “Ara h1”

A further data set has as its target T3, conarachin (undenatured) (Arachis hypogaea, UniProt P43238 P43238:26-626).
T3 sequence: T1 sequence
Nature of the data set: SPR; 10-1000 nM conarachin. The following applies: tags: COSMO BIO CSB-CSB-NP003601PL. On the procedure:
as §1
as §2, with “undenatured conarachin” for “Ara h1 used in Example 2”, “(10, 30, 100, 300, and 1000 nmol/L) and the heat-denatured conarachin to predetermined concentrations (3.125, 6.25,” for “(6.25,”, “25,” for “25, 50,”, “50” for “100”, “conarachin” for “Ara h1”

Data set [4] has as its target beta-conglycinin (undenatured) (Glycine max, UniProt P0DO16;P11827;P25974 P0DO16:63-605,P11827:63-621,P25974:24-439). Nature of the data set: SPR; little binding, 18.75-300 nM. The note with it: tags: Sigma C5868-5GM. On the procedure:
First, as a sensor chip designed specifically for the ProteON, a streptavidin-immobilized chip (trade name: ProteOn NLC Sensor Chip, BioRad) was set in the ProteON XPR36. Biotinylated poly(dT) at 5 μmol/L was injected to a flow cell of the sensor chip using ultrapure water (DDW), and the binding was allowed to proceed until the signal intensity (RU: Resonance Unit) reached about 900 RU. The biotinylated poly(dT) was prepared by biotinylating the 5′ end of 24-mer deoxythymidine. Then, the poly(dA)-added aptamer at 1 μmol/L was injected to the flow cell of the chip using an SPR buffer at a flow rate of 25 μL/min for 80 seconds, and the binding was allowed to proceed until the signal intensity reached about 800 RU. […] Subsequently, the sample was injected using the SPR buffer at a flow rate of 50 μL/min for 120 seconds, followed by washing performed by flowing the SPR buffer under the same conditions. Signal intensity measurement was performed concurrently with the injection of the sample and the washing with the SPR buffer.
as §3, with “chip. The relative binding value was calculated as the ratio of the protein binding measured value to the aptamer immobilization measured value (the protein binding measured value/the aptamer immobilization measured value).” for “chip.”

Sequence of beta-conglycinin (heat-denatured, boiled 10 min) (P0DO16 63-605, chain 1 of 3): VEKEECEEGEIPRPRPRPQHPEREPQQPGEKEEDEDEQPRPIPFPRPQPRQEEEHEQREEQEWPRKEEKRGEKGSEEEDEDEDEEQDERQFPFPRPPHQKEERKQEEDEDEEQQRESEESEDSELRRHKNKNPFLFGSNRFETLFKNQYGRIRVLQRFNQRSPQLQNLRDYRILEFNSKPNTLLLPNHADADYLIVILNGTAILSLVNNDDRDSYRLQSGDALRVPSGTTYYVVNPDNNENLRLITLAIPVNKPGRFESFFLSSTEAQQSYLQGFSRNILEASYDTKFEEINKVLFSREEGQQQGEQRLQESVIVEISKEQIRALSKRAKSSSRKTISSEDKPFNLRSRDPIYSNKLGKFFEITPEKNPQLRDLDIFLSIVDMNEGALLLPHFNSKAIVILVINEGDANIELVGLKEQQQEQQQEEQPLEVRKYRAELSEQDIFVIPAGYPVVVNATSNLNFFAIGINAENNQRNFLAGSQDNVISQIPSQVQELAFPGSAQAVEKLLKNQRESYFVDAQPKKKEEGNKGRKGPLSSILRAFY
Sequence of beta-conglycinin (heat-denatured, boiled 10 min) (P11827 63-621, chain 2 of 3): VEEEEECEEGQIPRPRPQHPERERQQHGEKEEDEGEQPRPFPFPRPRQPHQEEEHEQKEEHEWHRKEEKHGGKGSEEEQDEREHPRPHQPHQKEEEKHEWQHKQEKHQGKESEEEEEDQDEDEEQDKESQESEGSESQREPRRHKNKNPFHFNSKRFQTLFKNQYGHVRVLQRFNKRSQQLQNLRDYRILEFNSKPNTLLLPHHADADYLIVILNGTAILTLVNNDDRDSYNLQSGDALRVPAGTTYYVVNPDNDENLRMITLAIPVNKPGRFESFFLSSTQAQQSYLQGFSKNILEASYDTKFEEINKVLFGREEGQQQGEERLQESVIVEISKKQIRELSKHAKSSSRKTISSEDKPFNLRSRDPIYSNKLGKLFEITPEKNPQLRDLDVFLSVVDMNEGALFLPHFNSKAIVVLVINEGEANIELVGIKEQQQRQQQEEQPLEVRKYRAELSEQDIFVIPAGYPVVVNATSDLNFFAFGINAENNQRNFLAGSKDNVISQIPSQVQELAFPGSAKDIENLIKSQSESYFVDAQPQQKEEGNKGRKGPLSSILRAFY
Sequence of beta-conglycinin (heat-denatured, boiled 10 min) (P25974 24-439, chain 3 of 3): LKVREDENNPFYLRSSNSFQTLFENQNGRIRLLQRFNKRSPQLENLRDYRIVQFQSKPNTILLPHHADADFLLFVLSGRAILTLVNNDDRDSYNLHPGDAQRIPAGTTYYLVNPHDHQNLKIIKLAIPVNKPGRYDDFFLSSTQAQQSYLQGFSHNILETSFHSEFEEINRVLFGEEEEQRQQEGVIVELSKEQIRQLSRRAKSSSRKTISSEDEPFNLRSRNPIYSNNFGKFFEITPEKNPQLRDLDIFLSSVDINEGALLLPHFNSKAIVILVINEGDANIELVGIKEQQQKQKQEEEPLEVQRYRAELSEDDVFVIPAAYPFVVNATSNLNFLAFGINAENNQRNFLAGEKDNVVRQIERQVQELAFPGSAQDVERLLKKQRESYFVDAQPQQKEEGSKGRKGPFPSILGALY
Sequence of beta-conglycinin (undenatured) (P0DO16 63-605, chain 1 of 3): as the sequence (P0DO16 63-605, chain 1 of 3) above
Sequence of beta-conglycinin (undenatured) (P11827 63-621, chain 2 of 3): as the sequence (P11827 63-621, chain 2 of 3) above
Sequence of beta-conglycinin (undenatured) (P25974 24-439, chain 3 of 3): as the sequence (P25974 24-439, chain 3 of 3) above

B1: P_NES02 (CONA161R8m1s31) (ssDNA)
DNA: GAATCCGCGGGGTAGCGGTGGCGAGCGATTCAAAAAAAAAAAAAAAAAAAAAAAA
In the case of B1, the binding result is “binds” in data set [1]; “no binding” in data set [2]; “binds” in data set [3]; “binds” with conarachin (undenatured); “no binding” in data set [4].
